Measurements reported in patent US20210009686A1.

Key:
[1] = target: claudin 18.1 (CLDN18.1) (human) (UniProt P56856); assay: FACS, hybridoma supernatant on HEK293-CLDN18.1
[2] = target: claudin 18.1 (CLDN18.1) (human) (UniProt P56856); assay: in-cell ELISA, hybridoma supernatant on HEK293-CLDN18.1 cells

Sequence of claudin 18.1 (CLDN18.1) (human) (P56856 whole entry): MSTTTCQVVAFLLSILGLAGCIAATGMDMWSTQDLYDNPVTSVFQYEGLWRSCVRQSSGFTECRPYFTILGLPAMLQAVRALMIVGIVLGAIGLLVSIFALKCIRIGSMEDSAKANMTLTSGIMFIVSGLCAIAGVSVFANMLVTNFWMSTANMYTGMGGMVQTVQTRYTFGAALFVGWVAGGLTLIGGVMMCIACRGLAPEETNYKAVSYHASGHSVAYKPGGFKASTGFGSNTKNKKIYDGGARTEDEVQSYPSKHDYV

- MFI [1]: 14300
- OD450/µg IgG [2]: 0.62 OD450/µg IgG
B1: hybridoma clone 10-L9-A (antibody, V domains shown)
VH: EVQLVESGGGLVKPGGSRKLSCAASGFTFSDYGMHWVRQAPEKGLEWIAYINSGSSTIYYADTVKGRFTISRDNAKNTLFLQMTSLRSEDTAMFYCARFARGNVLDYWGQGTSVTVSS
VL: DIVMTQSPSSLTVTAGEKVTMSCRSSQSLLNSGNQRNYLTWYQQKPGHPPKLLIYWASTRESGVPDRFTGSGSGTDFTLTISGVQAEDLAVYYCQNGYSYPLTFGAGTKLEVK
